{"source": "paper PMC9033776", "about": "“Chromatin profiling in human neurons reveals aberrant roles for histone acetylation and BET family proteins in schizophrenia” (Nature Communications, 2022)", "biological_target": "T1, Bromo1-linker(GGS)5-Bromo2 of BRD4 (UniProt O60885 54-168; O60885 351-457)", "T1 construct": "BRD4 bromo1; (GGS)5 linker that replaces the stretch between the two bromodomains; BRD4 bromo2; the limits of the two domains in the fusion are not restated; also called Bromo1-linker-Bromo2 of BRD4; source: E. coli, purified using the same procedure as the single bromodomains", "test": "ITC; 3 mM H2A.Z peptides titrated into 0.3 mM bromodomains; 25 °C; 20 mM Hepes-Na pH 7.5, 100 mM NaCl; One Set of Binding Sites model", "details": "both partners purified", "note": "Where no end group is shown, it is not given here.", "data": [{"binder": "AGGK(Ac)AGK(Ac)DSGK(Ac)AKTKC (also: cross-linked via C-terminal cysteine)", "note": "[H2A.ZK4ac7ac11ac peptides cross-linked by a C-terminal cysteine]", "values": [{"measurement": "fold stronger binding than Bromo1 of BRD4", "value": 6.49, "unit": "fold"}, {"measurement": "fold stronger binding than Bromo2 of BRD4", "value": 1.7, "unit": "fold"}]}]}
